Reference: patent publication US7329737 (DYAX, dated 2008)

B1: M0104-H12 (Fab, V domains shown)
VH: EVQLLESGGGLVQPGGSLRLSCAASGFTFSYYQMSWVRQAPGKGLEWVSRIGPSGGLTSYADSVKGRFTISRDNSKNTLYLQMNSLRAEDTAVYYCARVGVWYGMDVWGQGTLVTVSS
VL: AQSELTQPPSASGSPGQSVTISCTGTSSDVGAYNYVSWYQQHPGKAPKLIIYEVNKRPSGVPDRFSASKSGNTASLTVSGLQAEDEADYYCNSYAGSNSLIFGGGTKLTVLG
B2: M0135-F03 (Fab, V domains shown)
VH: EVQLLESGGGLVQPGGSLRLSCAASGFTFSHYVMIWVRQAPGKGLEWVSWIYPSGGNTIYADSVKGRFTISRDNSKNTLYLQMNSLRAEDTATYYCARVGVWYGMDVWGQGTTVTVSS
VL: DIQMTQSPATLSLSPGERATLSCRASQSVSSYLAWYQQKPGQAPRLLIYDASNRATGIPARFSGSGSGTDFTLTISSLEPEDFAVYYCQQRSNWPSPIAFGQGTRLEIKR
B3: M0135-C12 (Fab, V domains shown)
VH: EVQLLESGGGLVQPGGSLRLSCAASGFTFSRYHMSWVRQAPGKGLEWVSSIRPSGGSTIYADSVKGRFTISRDNSKNTLYLQMNSLRAEDTAVYYCAREPRRYYYDSSGSYDAFDIWGQGTMVTVSS
VL: AQSELTQPPSMSGTPGQRVIISCSGSNSNIGNNFVYWYQQVAGSAPKLLIFRNNQRPSGVPDRFTVSKSGASASLAIGGLRSEDEADYYCAAWDDSLSGVLFGGGTKVTVLG
B4: M0097-F04 (Fab, V domains shown)
VH: EVQLLESGGGLVQPGGSLRLSCAASGFTFSPYQMWWVRQAPGKGLEWVSSISSSGGLTRYADSVKGRFTISRDNSKNTLYLQMNSLRAEDMAVYYCARVKLNYYGSGSYSLDAFDIWGQGTNGHRLKRLHQGPIGLPASTLLQEH
VL: AQYELTQPPSASGTPGQRVTISCSGSSSNIGSNYVHWYQQLPGTAPKLLIYRNNRRPSGVPDRFSGSKSGTSASLAISGLRSEDEADYYCAAWDDSLSGLVVFGGGTKLTVLGQPKAAP
B5: M0111-C10 (Fab, V domains shown)
VH: EVQLLESGGGLVQPGGSLRLSCAASGFTFSRYVMSWVRQAPGKGLEWVSSIRSSGGRTMYADSVKGRFTISRDNSKNTLYLQMNSLRAEDTAVYYCARVGVWYGMDVWGQGTTVTVSS
VL: DIQMTQSPSSLSASVGDRVTITCRASQSISSYLNWYQQKPEKAPQLLIFAASSLQSGVPSRFSGSGSGTDFTLTISSLQPEDFATYYCQQSYNAPWTFGQGTKVEIRR
B6: M0094-E08 (Fab, V domains shown)
VH: EVQLLESGGGLVQPGGSLRLSCAASGFTFSFYAMVWVRQAPGKGLEWVSYISPSGGATWYADSVKGRFTISRDNSKNTLYLQMNSLRAEDTAVYYCAKPSRPRYYYDSSGYYSSAFDIWGQGTMVTVSS
VL: AQSVLTQPASVSGSPGQSITISCTGTSSDVGAYNYVSWYQQHPGKVPELMIYDVSNRPSGVSHRFSGSKSGNTASLTISGLQAEDDADYYCSSFTSRKTWVFGTGTKVTVLG
B7: M0138-B10 (Fab, V domains shown)
VH: EVQLLESGGGLVQPGGSLRLSCAASGFTFSHYSMTWVRQAPGKGLEWVSRIYPSGGRTGYADSVKGRFTISRDNSKNTLYLQMNSLRAEDTAVYYCATDSGGYYYGMDVWGQGTTVTVSS
VL: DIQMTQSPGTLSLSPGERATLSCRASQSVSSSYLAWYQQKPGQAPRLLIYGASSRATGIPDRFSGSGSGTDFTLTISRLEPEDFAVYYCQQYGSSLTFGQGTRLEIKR
B8: M0139-F09 (Fab, V domains shown)
VH: EVQLLESGGGLVQPGGSLRLSCAASGFTFSHYVMAWVRQAPGKGLEWVSRIGPSGGYTMYADSVKGRFTISRDNSKNTLYLQMNSLRAEDTAVYYCARVGVWYGMDVWGQGTTVTVSS
VL: DIQMTQSPGTLSLSPGERATLSCRASQSVSSSYLAWYQQKPGQAPRLLIYGASSRATGIPDRFSGSGSGTDFTLTISSLQLEDFGTYFCQQSYRSPYTFGQGTKVDIKR
B9: M0104-A12 (Fab, V domains shown)
VH: EVQLLESGGGLVQPGGSLRLSCAASGFTFSHYNMGWVRQAPGKGLEWVSRIGSSGGKTAYADSVKGRFTISRDNSKNTLYLQMNSLRAEDTAVYYCAKTNYDFWSGYLPNPNPYPLDYWGQGTLVTVSS
VL: DIQMTQSPSSLSASVGDRVTITCRASQSIGASLNWYQQKPQKAPKLLIYTASNLQSGVPSRFSGSGSGTDFTLTISSLLPEDFATYYCQQNYRGRTFGQGTKLEIKR
B10: M0132-D02 (Fab, V domains shown)
VH: EVQLLESGGGLVQPGGSLRLSCAASGFTFSHYPMDWVRQAPGKGLEWVSYIGPSGGSTRYADSVKGRFTISRDNSKNTLYLQMNSLRAEDTAVYYCARHVPPGTWGQGTLVTVSS
VL: AQSALTQPRSVSGSPGQSVTISCTGTSSDVNYVSWYQQHPGKAPKLMIYAVTKRPSGVPDRFSGSKSGNTASLTVSGLQAEDEADYYCSSYAGSNNLVFGGGTKLTVLG
B11: M0138-C04 (Fab, V domains shown)
VH: EVQLLESGGGLVQPGGSLRLSCAASGFTFSHYHMQWVRQAPGKGLEWVSGIRSSGGVTGYSDSVKGRFTISRDNSKNTLYLQMNSLRAEDTAVYYCAREVTMVRGVYYYYYGMDVWGQGTTVTVSS
VL: AQYELTQPASVSGSPGQSITISCTGTSSDVGAYNYVSWYQHHPGKAPKLLIYDVSNRPSGISSRFSGSKSGNTASLTISGLQAEDEADYYCSSYTSSYTWVFGGGTKLTVLS
B12: M0132-H11 (Fab, V domains shown)
VH: EVQLLESGGGLVQPGGSLRLSCAASGFTFSHYQMHWVRQAPGKGLEWVSRIRSSGGATSYADSVKGRFTISRDNSKNTLYLQMNSLRAEDTAVYYCARGGGYSYYFDYWGQGTLVTVSS
VL: AQYELTQPPSASGTPGQRVTISCSGSSSNIGSNYVYWYQQLPGTAPKLLIYRNNQRPSGVPDRFSGSKSGTSASLAISGLRSEDEADYYCAAWDDSLSGHAVFGGGTQLTVLG
B13: M0132-D08 (Fab, V domains shown)
VH: EVQLLESGGGLVQPGGSLRLSCAASGFTFSHYLMYWVRQAPGKGLEWVSWIGPSGGHTMYADSVKGRFTISRDNSKNTLYLQMNSLRAEDTAVYYCARLQQGLDYWGQGTLVTVSS
VL: DIQMTQSPSTLSASVGDRVTITCRASQSISNWLAWYQQKPGKAPKLLIYMASTLESGVPSRFSGSGSGTEFTLTISSLQPADFATYYCQQYNSYSVTFGGGTKVEIKR
B14: M0121-A07 (Fab, V domains shown)
VH: EVQLLESGGGLVQPGGSLRLSCAASGFTFSHYLMYWVRQAPGKGLEWVSRIYPSGGATSYADSVKGRFTISRDNSKNTLYLQMNSLRAEDTAVYYCAKSGSWYSFDYWGQGTLVTVSS
VL: DIQMTQSPGTLSLSPGERATLSCRASQSVSSNYLAWYQQKPGQAPRLLMYGASYRATGIPDRFSGSGSGTDFTLTISSLQPEDFATYYCQQSYSTPWTFGQGTKVEIKR
B15: M0126-F11 (Fab, V domains shown)
VH: EVQLLESGGGLVQPGGSLRLSCAASGFTFSHYWMMWVRQAPGKGLEWVSWIGSSGGFTWYADSVKGRFTISRDNSKNTLYLQMNSLRAEDTAVYYCARGNGGFDSWGQGTLVTVSS
VL: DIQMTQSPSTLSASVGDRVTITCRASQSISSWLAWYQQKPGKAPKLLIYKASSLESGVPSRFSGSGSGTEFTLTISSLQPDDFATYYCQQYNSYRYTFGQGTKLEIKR
B16: M0128-E07 (Fab, V domains shown)
VH: EVQLLESGGGLVQPGGSLRLSCAASGFTFSFYPMSWVRQAPGKGLEWVSYIWPSGGATRYADSVKGRFTISRDNSKNTLYLQMNSLRAEDTAVYYCARGNGGFDSWGQGTLVTVSS
VL: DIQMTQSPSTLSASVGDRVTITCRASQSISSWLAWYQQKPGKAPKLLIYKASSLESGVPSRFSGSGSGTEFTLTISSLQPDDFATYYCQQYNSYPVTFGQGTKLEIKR
B17: M0098-H04 (Fab, V domains shown)
VH: EVQLLESGGGLVQPGGSLRLSCAASGFTFSHYVMSWVRQAPGKGLEWVSRIYPSGGQTYYADSVKGRFTISRDNSKNTLYLQMNSLRAEDTAVYYCARGAGWFDPWGQGTLVTVSS
VL: AQSELTQPPSASGSPGQSLTISCTGGRRDIGNYNYVSWYQQHPGKAPRLIIYDVRKRPSGVPDRFSGSKSGNVAFLTVSGLQTDDEADYYCGSYTGTSNVFGSGTTVTVLG
B18: M0131-G03 (Fab, V domains shown)
VH: EVQLLESGGGLVQPGGSLRLSCAASGFTFSHYVMQWVRQAPGKGLEWVSSIYPSGGSTRYADSVKGRFTISRDNSKNTLYLQMNSLRAEDTAMYYCARFNVGFDLWGRGTLVTVSS
VL: AQSELTQPPSASGSPGQSLTISCTGGRRDIGNYNYVSWYQQHPGKAPRLIIYDVRKRPSGVPDRFSGSKSGNVAFLTVSGLQTDDEADYYCGSYTGTSNVFGSGTTVTVLG
B19: M0093-C02 (Fab, V domains shown)
VH: EVQLLESGGGLVQPGGSLRLSCAASGFTFSWYAMHWVRQAPGKGLEWVSWISPSGGQTKYADSVKGRFTISRDNSKNTLYLQMNSLRAEDTAVYYCARAKVLRYFDWLLGGDAFDIWGQGTMVTVSS
VL: DIQMTQSPGTLSLSPGDRATLSCRASQSVGSDYLAWYQQKPGQAPRLLIFAASTRATGIPDRFSGSGSATDFTLTISSLEPEDFAVYFCQQYASPPRTFGQGTKVEIKR
B20: M0115-G12 (Fab, V domains shown)
VH: EVQLLESGGGLVQPGGSLRLSCAASGFTFSPYFMEWVRQAPGKGLEWVSGISSSGGNTLYADSVKGRFTISRDNSKNTLYLQMNSLRAEDTAVYYCARDRFGNYYGSGSKLQHDAFDIWGQGTMVTVSS
VL: DIQMTQSPVTLSLSPGDRATLSCRASQSVSFNLAWYQHKPGQAPRLLMFDASNRATGIPDRFSGSGSGTDFTLTIKRLEPEDFAVYYCQQYGTSPFTFGPGTNVDVKR

target: T1, hK1 (human tissue kallikrein 1), recombinant (human, UniProt P06870 25-262); experiment: SPR
T1 construct: Expressed in P. pastoris from KLK1 cDNA and purified; enzymatically active; also called KLK1; Recombinant (Pichia) Kallikrein

Row | Binder | Kd [nM] | koff [s⁻¹] | kon [M⁻¹ s⁻¹]
1 | B1 | 2.43 | 0.00138 | 567000
2 | B2 | 2.66 | 0.000625 | 235000
3 | B3 | 3.1 | 0.000376 | 121000
4 | B4 | 3.26 | 0.000346 | 106000
5 | B5 | 3.29 | 0.00341 | 1.04e+06
6 | B6 | 3.34 | 0.00053 | 159000
7 | B7 | 3.36 | 0.00089 | 265000
8 | B8 | 3.6 | 0.00108 | 301000
9 | B9 | 3.66 | 0.00246 | 673000
10 | B10 | 4.22 | 0.00303 | 717000
11 | B11 | 4.26 | 0.000728 | 171000
12 | B12 | 4.5 | 0.00198 | 440000
13 | B13 | 4.73 | 0.000923 | 195000
14 | B14 | 4.75 | 0.00438 | 922000
15 | B15 | 5.05 | 0.00144 | 285000
16 | B16 | 30.4 | 0.0147 | 483000
17 | B17 | 5.53 | 0.00255 | 461000
18 | B18 | 7.49 | 0.00256 | 341000
19 | B19 | 5.72 | 0.00103 | 180000
20 | B20 | 5.73 | 0.000865 | 151000
